The source of these data is US20210032664, “ENGINEERED MEGANUCLEASES WITH RECOGNITION SEQUENCES FOUND IN THE HUMAN BETA-2 MICROGLOBULIN GENE” (Precision Biosciences, Inc., published 2021).

Experiment in all cases: cell_activity; human T cells, 1 ug mRNA, day 3
Conditions in all cases: tags: N-terminal SV40 NLS

The target of one data set is T1, B2M 13-14x.338 (Artificial Sequence).
T1 chain: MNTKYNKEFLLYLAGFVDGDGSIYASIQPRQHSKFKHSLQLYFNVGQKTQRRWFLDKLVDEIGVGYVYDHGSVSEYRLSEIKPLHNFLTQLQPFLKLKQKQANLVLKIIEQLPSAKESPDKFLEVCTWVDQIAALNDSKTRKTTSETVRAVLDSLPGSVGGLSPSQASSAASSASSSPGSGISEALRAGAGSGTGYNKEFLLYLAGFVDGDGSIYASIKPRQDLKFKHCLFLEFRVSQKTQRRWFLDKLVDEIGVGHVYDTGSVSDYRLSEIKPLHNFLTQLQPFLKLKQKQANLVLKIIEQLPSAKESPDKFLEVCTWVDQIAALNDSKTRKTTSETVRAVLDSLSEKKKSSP
On the procedure:
(§1) Donor human T cells were stimulated with anti-CD3 and anti-CD28 antibodies for 3 days, then electroporated with mRNA encoding a given B2M 13-14 meganuclease (1 μg) using the Amaxa 4D-Nucleofector (Lonza) according to the manufacturer's instructions. To look for the loss of B2M surface expression, cells were stained with an antibody recognizing β-2 microglobulin (BD Biosciences) as well as an antibody recognizing CD3 (BioLegend), a marker of T cells.

The next data set concerns the target T2, B2M 13-14x.457 (Artificial Sequence).
T2 chain: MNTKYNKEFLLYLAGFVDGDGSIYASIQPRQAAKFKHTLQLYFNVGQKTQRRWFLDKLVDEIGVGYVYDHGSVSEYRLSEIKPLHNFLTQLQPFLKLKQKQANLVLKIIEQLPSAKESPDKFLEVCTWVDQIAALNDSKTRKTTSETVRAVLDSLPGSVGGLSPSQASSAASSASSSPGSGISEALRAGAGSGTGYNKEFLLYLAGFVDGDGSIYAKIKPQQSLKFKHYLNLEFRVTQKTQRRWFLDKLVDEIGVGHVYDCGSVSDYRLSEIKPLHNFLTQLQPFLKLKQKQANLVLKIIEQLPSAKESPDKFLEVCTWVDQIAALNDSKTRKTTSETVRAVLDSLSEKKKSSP
On the procedure:
as §1

The target of the next data set is T3, B2M 13-14x.378 (Artificial Sequence).
T3 chain: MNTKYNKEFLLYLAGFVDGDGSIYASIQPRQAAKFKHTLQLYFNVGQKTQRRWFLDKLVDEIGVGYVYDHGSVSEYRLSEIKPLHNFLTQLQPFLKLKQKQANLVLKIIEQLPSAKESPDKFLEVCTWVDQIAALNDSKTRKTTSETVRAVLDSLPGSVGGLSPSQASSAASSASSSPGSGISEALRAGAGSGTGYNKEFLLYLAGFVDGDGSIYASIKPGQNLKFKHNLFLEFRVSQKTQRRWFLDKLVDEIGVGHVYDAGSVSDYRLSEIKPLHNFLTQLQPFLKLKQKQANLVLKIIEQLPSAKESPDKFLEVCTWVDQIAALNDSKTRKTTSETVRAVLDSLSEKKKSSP
On the procedure: as §1

In a further data set the target is T4, B2M 13-14x.286 (Artificial Sequence).
T4 chain: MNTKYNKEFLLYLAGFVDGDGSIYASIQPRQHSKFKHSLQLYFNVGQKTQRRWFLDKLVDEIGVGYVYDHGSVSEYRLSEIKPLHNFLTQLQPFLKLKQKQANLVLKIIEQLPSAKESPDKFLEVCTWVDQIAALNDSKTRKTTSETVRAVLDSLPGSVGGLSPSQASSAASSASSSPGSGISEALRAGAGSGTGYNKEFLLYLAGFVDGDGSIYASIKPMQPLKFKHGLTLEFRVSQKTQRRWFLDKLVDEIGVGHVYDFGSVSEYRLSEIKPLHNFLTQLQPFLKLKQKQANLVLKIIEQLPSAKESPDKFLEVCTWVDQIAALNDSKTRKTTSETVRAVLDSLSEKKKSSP
The procedure:
as §1

In a further data set the target is T5, B2M 13-14x.371 (Artificial Sequence).
T5 chain: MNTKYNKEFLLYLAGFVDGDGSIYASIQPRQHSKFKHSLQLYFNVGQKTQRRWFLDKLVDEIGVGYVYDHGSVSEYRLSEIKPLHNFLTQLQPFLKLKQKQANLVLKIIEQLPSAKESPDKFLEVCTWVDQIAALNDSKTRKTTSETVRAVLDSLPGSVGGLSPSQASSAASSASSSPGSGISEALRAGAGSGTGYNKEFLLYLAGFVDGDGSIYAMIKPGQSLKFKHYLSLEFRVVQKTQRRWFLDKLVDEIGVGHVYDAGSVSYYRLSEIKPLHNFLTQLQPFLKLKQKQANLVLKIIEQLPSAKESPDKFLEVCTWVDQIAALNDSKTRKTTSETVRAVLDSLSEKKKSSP
On the procedure:
as §1

For the next data set, the target named is T6, B2M 13-14x.551 (Artificial Sequence).
T6 chain: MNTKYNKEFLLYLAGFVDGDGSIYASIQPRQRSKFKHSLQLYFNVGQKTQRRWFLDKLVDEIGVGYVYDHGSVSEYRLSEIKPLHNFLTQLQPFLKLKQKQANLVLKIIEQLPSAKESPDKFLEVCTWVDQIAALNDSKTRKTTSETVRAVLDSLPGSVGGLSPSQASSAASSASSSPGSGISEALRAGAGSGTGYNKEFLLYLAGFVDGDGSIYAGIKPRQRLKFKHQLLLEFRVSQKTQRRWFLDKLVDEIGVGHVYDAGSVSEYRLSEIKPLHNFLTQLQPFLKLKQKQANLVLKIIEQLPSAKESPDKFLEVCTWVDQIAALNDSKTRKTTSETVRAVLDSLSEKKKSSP
The procedure:
as §1

A further data set addresses T7, B2M 13-14x.465 (Artificial Sequence).
T7 chain: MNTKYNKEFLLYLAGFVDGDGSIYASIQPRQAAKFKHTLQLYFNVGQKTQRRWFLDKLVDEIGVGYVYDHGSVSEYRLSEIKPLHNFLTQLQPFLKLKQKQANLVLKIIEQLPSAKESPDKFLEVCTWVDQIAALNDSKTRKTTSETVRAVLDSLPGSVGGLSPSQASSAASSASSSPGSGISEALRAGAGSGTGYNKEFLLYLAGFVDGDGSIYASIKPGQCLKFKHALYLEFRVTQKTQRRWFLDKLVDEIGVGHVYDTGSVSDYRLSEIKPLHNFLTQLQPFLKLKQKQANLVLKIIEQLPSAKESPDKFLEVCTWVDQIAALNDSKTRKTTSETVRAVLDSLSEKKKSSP
The procedure:
as §1

B1: B2M 13-14 recognition sequence (dsDNA)
DNA 1: CTATCTCTTGTACTACACTGAA
DNA 2: TTCAGTGTAGTACAAGAGATAG
As to B1, the activity in the data set with B2M 13-14x.338 came to 4.68 % B2M-negative; with B2M 13-14x.457, 19.7 % B2M-negative; in the data set with B2M 13-14x.378, 3.54 % B2M-negative; in the data set with B2M 13-14x.286, 44.6 % B2M-negative; with B2M 13-14x.371 it was 22.6 % B2M-negative; with B2M 13-14x.551, 40.3 % B2M-negative. In the data set with B2M 13-14x.465, the activity was 30.8 % B2M-negative.
